The results in this text go back to PMC8231982.

The assay concerns the target influenza hemagglutinin full length protein, A/New-York/55/04 (H3N2) (influenza A virus A/New-York/55/04 (H3N2)). The experiment in a line: SPR. In general terms: Surface plasmon resonance follows binding to a sensor surface in real time, without labels.

wild-type cyanovirin-N (WT CV–N), sequence (P81180 whole entry): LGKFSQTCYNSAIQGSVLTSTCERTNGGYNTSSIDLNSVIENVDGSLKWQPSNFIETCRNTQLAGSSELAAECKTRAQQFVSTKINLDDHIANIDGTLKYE

One may read the Kd as the concentration at which binding is half-saturated. Lower therefore signals tighter binding. Regarding “wild-type cyanovirin-N (WT CV–N) (from UniProt P81180 1-101) (natural protein)”, the Kd is 5.7 nM.
